The values that follow are results of earlier work, collected in publication PMC10539808.

This data set has as its target Lys66 (UniProt position 148, FTKKMKENAKK). The following applies: not stated (quoted literature value; no ligand mentioned).

The term pKa denotes the negative logarithm of the acid dissociation constant. For “Staphylococcal nuclease (SNase), Delta+PHS/V66K variant (Staphylococcus aureus; P117G;H124L;S128A;del44-49;G50F;V51N;V66K)”, the pKa is 5.7 and ∼ 5.6.
